# Patent publication US20110236325A1, “METHODS TO TREAT OR PREVENT A SKIN CONDITION USING A NELL1 PEPTIDE” (NellOne Therapeutics, Inc., priority 2010, published 2011)
# B1: Nell 1: Full-length human recombinant NELL1 protein (isoform 1, SEQ ID NO: 2), expressed in a wheat germ cell-free translation system, obtained from Abnova (protein, listed as Homo sapiens)
# chain: MPMDLILVVWFCVCTARTVVGFGMDPDLQMDIVTELDLVNTTLGVAQVSGMHNASKAFLFQDIEREIHAAPHVSEKLIQLFRNKSEFTILATVQQKPSTSGVILSIRELEHSYFELESSGLRDEIRYHYIHNGKPRTEALPYRMADGQWHKVALSVSASHLLLHVDCNRIYERVIDPPDTNLPPGINLWLGQRNQKHGLFKGIIQDGKIIFMPNGYITQCPNLNHTCPTCSDFLSLVQGIMDLQELLAKMTAKLNYAETRLSQLENCHCEKTCQVSGLLYRDQDSWVDGDHCRNCTCKSGAVECRRMSCPPLNCSPDSLPVHIAGQCCKVCRPKCIYGGKVLAEGQRILTKSCRECRGGVLVKITEMCPPLNCSEKDHILPENQCCRVCRGHNFCAEGPKCGENSECKNWNTKATCECKSGYISVQGDSAYCEDIDECAAKMHYCHANTVCVNLPGLYRCDCVPGYIRVDDFSCTEHDECGSGQHNCDENAICTNTVQGHSCTCKPGYVGNGTICRAFCEEGCRYGGTCVAPNKCVCPSGFTGSHCEKDIDECSEGIIECHNHSRCVNLPGWYHCECRSGFHDDGTYSLSGESCIDIDECALRTHTCWNDSACINLAGGFDCLCPSGPSCSGDCPHEGGLKHNGQVWTLKEDRCSVCSCKDGKIFCRRTACDCQNPSADLFCCPECDTRVTSQCLDQNGHKLYRSGDNWTHSCQQCRCLEGEVDCWPLTCPNLSCEYTAILEGECCPRCVSDPCLADNITYDIRKTCLDSYGVSRLSGSVWTMAGSPCTTCKCKNGRVCCSVDFECLQNN
# Test system: EFT-400 tissues
# Test: Gene expression by quantitative PCR custom array in EFT-400 tissues with or without UV irradiation
# Conditions: for AVG Ct ACTB (housekeeping gene) / AVG Ct AQP3 / AVG Ct BCL2L1 / AVG Ct COL1A1 / AVG Ct COL4A2 / AVG Ct COL5A1 / AVG Ct COL6A1 / AVG Ct COL6A2 / AVG Ct COL7A1 / AVG Ct COL8A1 / AVG Ct COL11A1 / AVG Ct COL12A1 / AVG Ct COL14A1 / AVG Ct COL15A1 / AVG Ct COL16A1 / AVG Ct DSG1 / AVG Ct ERCC1 / AVG Ct FN1 / AVG Ct GAPDH (housekeeping gene) / AVG Ct GDF15 / AVG Ct GSTM3 / AVG Ct HSPA8 / AVG Ct IL1A / AVG Ct IL1B / AVG Ct IL8 / AVG Ct KAL1 / AVG Ct KRT16 / AVG Ct LAMA1 / AVG Ct LAMA2 / AVG Ct LAMA3 / AVG Ct LAMA5 / AVG Ct LAMB1 / AVG Ct LAMB3 / AVG Ct LAMC1 / AVG Ct MMP1 / AVG Ct MMP2 / AVG Ct MT2A / AVG Ct PCNA / AVG Ct RPL13A (housekeeping gene) / AVG Ct SIRT1 / AVG Ct TGFBI / AVG Ct THBS3 / AVG Ct TNC / AVG Ct VTN: No UV
# Description: EpiDerm-FT™ (EFT-400) tissues were produced and packaged in the MatTek Corporation GMP tissue culture production laboratories following standard procedures. Packaged tissues were stored at 4° C. overnight and then re-equilibrated in EFT-400-ASY medium overnight prior to the start of experiments. The sample size was n=3 for each treatment group in the gene expression experiments; and n=6 (two independent experiments of n=3) for the sunburned cell counts.
# Total RNA was isolated from the EFT-400 tissues (RNAqueous kit, Ambion) (n=3) and utilized for gene expression analysis by quantitative PCR on an SABioscience custom array containing 42 Human Extracellular Matrix (ECM) and Adhesion Molecules RT^2 Profiler™ PCR Array, stress and toxicity genes whose expression, based on MatTek data, are known to be dramatically altered by UV-protective compounds on UV damaged skin. […] Further, there were three internal control spots on the array that corresponded to human genomic DNA contamination (HGDC), positive PCR control (PPC), and reverse transcription control (RTC).
molecule,measurement,setting,value
B1,"activity in producing the observed effects (sunburned cells, gene expression)","NELL1 protein at 100 ng/ml, genistein at 50 μM",most active in producing the observed effects
same,AVG Ct ACTB (housekeeping gene),100 ng/ml Nell 1,18
same,AVG Ct AQP3,100 ng/ml Nell 1,23.05
same,AVG Ct BCL2L1,100 ng/ml Nell 1,24.03
same,AVG Ct COL1A1,100 ng/ml Nell 1,17.82
same,AVG Ct COL4A2,100 ng/ml Nell 1,22.01
same,AVG Ct COL5A1,100 ng/ml Nell 1,22.36
same,AVG Ct COL6A1,100 ng/ml Nell 1,18.82
same,AVG Ct COL6A2,100 ng/ml Nell 1,19.33
same,AVG Ct COL7A1,100 ng/ml Nell 1,25.75
same,AVG Ct COL8A1,100 ng/ml Nell 1,27.28
same,AVG Ct COL11A1,100 ng/ml Nell 1,26.77
same,AVG Ct COL12A1,100 ng/ml Nell 1,24.14
same,AVG Ct COL14A1,100 ng/ml Nell 1,25.88
same,AVG Ct COL15A1,100 ng/ml Nell 1,24.72
same,AVG Ct COL16A1,100 ng/ml Nell 1,23.78
same,AVG Ct DSG1,100 ng/ml Nell 1,20.11
same,AVG Ct ERCC1,100 ng/ml Nell 1,23.72
same,AVG Ct FN1,100 ng/ml Nell 1,20.04
same,AVG Ct GAPDH (housekeeping gene),100 ng/ml Nell 1,17.83
same,AVG Ct GDF15,100 ng/ml Nell 1,23.37
same,AVG Ct GSTM3,100 ng/ml Nell 1,29.11
same,AVG Ct HSPA8,100 ng/ml Nell 1,19.83
same,AVG Ct IL1A,100 ng/ml Nell 1,25.17
same,AVG Ct IL1B,100 ng/ml Nell 1,28.25
same,AVG Ct IL8,100 ng/ml Nell 1,20.41
same,AVG Ct KAL1,100 ng/ml Nell 1,31.6
same,AVG Ct KRT16,100 ng/ml Nell 1,16.15
same,AVG Ct LAMA1,100 ng/ml Nell 1,28.71
same,AVG Ct LAMA2,100 ng/ml Nell 1,24.38
same,AVG Ct LAMA3,100 ng/ml Nell 1,23.37
same,AVG Ct LAMA5,100 ng/ml Nell 1,26.73
same,AVG Ct LAMB1,100 ng/ml Nell 1,22.69
same,AVG Ct LAMB3,100 ng/ml Nell 1,24.73
same,AVG Ct LAMC1,100 ng/ml Nell 1,22.76
same,AVG Ct MMP1,100 ng/ml Nell 1,20.04
same,AVG Ct MMP2,100 ng/ml Nell 1,18.98
same,AVG Ct MT2A,100 ng/ml Nell 1,18.43
same,AVG Ct PCNA,100 ng/ml Nell 1,23.56
same,AVG Ct RPL13A (housekeeping gene),100 ng/ml Nell 1,20.37
same,AVG Ct SIRT1,100 ng/ml Nell 1,25.93
same,AVG Ct TGFBI,100 ng/ml Nell 1,21.73
same,AVG Ct THBS3,100 ng/ml Nell 1,28.69
same,AVG Ct TNC,100 ng/ml Nell 1,21.22
same,AVG Ct VTN,100 ng/ml Nell 1,32.48
same,AVG Ct ACTB (housekeeping gene),150 ng/ml Nell 1,18.54
same,AVG Ct AQP3,150 ng/ml Nell 1,23.74
same,AVG Ct BCL2L1,150 ng/ml Nell 1,24.48
same,AVG Ct COL1A1,150 ng/ml Nell 1,18.8
same,AVG Ct COL4A2,150 ng/ml Nell 1,22.92
same,AVG Ct COL5A1,150 ng/ml Nell 1,23.36
same,AVG Ct COL6A1,150 ng/ml Nell 1,19.6
same,AVG Ct COL6A2,150 ng/ml Nell 1,20.05
same,AVG Ct COL7A1,150 ng/ml Nell 1,26.73
same,AVG Ct COL8A1,150 ng/ml Nell 1,28.22
same,AVG Ct COL11A1,150 ng/ml Nell 1,27.51
same,AVG Ct COL12A1,150 ng/ml Nell 1,25
same,AVG Ct COL14A1,150 ng/ml Nell 1,26.52
same,AVG Ct COL15A1,150 ng/ml Nell 1,25.35
same,AVG Ct COL16A1,150 ng/ml Nell 1,24.55
same,AVG Ct DSG1,150 ng/ml Nell 1,20.36
same,AVG Ct ERCC1,150 ng/ml Nell 1,24.07
same,AVG Ct FN1,150 ng/ml Nell 1,20.71
same,AVG Ct GAPDH (housekeeping gene),150 ng/ml Nell 1,18.02
same,AVG Ct GDF15,150 ng/ml Nell 1,23.97
same,AVG Ct GSTM3,150 ng/ml Nell 1,29.74
same,AVG Ct HSPA8,150 ng/ml Nell 1,20.36
same,AVG Ct IL1A,150 ng/ml Nell 1,25.55
same,AVG Ct IL1B,150 ng/ml Nell 1,29.2
same,AVG Ct IL8,150 ng/ml Nell 1,21.04
same,AVG Ct KAL1,150 ng/ml Nell 1,33.03
same,AVG Ct KRT16,150 ng/ml Nell 1,16.49
same,AVG Ct LAMA1,150 ng/ml Nell 1,29.76
same,AVG Ct LAMA2,150 ng/ml Nell 1,25.3
same,AVG Ct LAMA3,150 ng/ml Nell 1,24.15
same,AVG Ct LAMA5,150 ng/ml Nell 1,27.41
same,AVG Ct LAMB1,150 ng/ml Nell 1,23.44
same,AVG Ct LAMB3,150 ng/ml Nell 1,25.42
same,AVG Ct LAMC1,150 ng/ml Nell 1,23.62
same,AVG Ct MMP1,150 ng/ml Nell 1,20.75
same,AVG Ct MMP2,150 ng/ml Nell 1,19.62
same,AVG Ct MT2A,150 ng/ml Nell 1,18.83
same,AVG Ct PCNA,150 ng/ml Nell 1,24.11
same,AVG Ct RPL13A (housekeeping gene),150 ng/ml Nell 1,20.81
same,AVG Ct SIRT1,150 ng/ml Nell 1,26.67
same,AVG Ct TGFBI,150 ng/ml Nell 1,22.16
same,AVG Ct THBS3,150 ng/ml Nell 1,29.23
same,AVG Ct TNC,150 ng/ml Nell 1,22.04
same,AVG Ct VTN,150 ng/ml Nell 1,32.57
same,expression of IL-1β elevated after UV exposure,UV-irradiated,decrease in the expression
same,expression of IL-8 elevated after UV exposure,UV-irradiated,decrease in the expression
same,expression of MMP-1 elevated after UV exposure,UV-irradiated,decrease in the expression
same,levels of AQP3 RNA after UV exposure,UV-irradiated,increased these levels further
same,UV-elevated levels of AQP3,"UV-irradiated, 100 ng/ml",further increased the UV-elevated levels of AQP3
same,UV-induced increase in IL-1β RNA level,"UV-irradiated, 100 ng/ml",slightly modulated the increases
same,UV-induced increase in IL-8 RNA level,"UV-irradiated, 100 ng/ml",slightly modulated the increases
same,UV-induced increase in MMP-1 RNA level,"UV-irradiated, 100 ng/ml",slightly modulated the increases
